# Legend:
# [1] = target: MamM_(BW-1) cytosolic C-terminal domain (CTD), residues 213-293 (Desulfamplus magnetovallimortis strain BW-1); assay: SEC; preparative size-exclusion chromatography after Ni-NTA; HiLoad 26/60 Superdex 75; buffer E (20 mM Tris-HCl pH 8, 150 mM NaCl, 5 mM beta-mercaptoethanol)
# [2] = target: MamB_(BW-1) cytosolic C-terminal domain (CTD), residues 190-270 (Desulfamplus magnetovallimortis strain BW-1) (UniProt G8IQT4); assay: as above
Substance,stoichiometry N [1],stoichiometry N [2]
"MamM_(BW-1) cytosolic C-terminal domain (CTD), residues 213-293 (domain or fragment)",2,
"MamB_(BW-1) cytosolic C-terminal domain (CTD), residues 190-270 (from UniProt G8IQT4 190-270) (domain or fragment)",,2

# Source: article PMC7170241
